Measurements taken from US11994512B2, “Single-cell genomic methods to generate ex vivo cell systems that recapitulate in vivo biology with improved fidelity” (Massachusetts Institute of Technology, priority 2018, dated 2024).

System: intracellular proteome of ENR+CD and ENR organoids
Test: LC-MS/MS TMT proteomics of ENR+CD versus ENR organoids
Format: cell-based, C57BL/6 mice
Conditions: for Average logFC / M1-1 Log2 Median Normalized / M1-2 Log2 Median Normalized / M2-1 Log2 Median Normalized / M2-2 Log2 Median Normalized: protein abundance, ENR+CD versus ENR organoids; for Average logFC: aggregate of the four sample pairs; for M1-1 Log2 Median Normalized: replicate M1-1; for M1-1 Log2 Median Normalized / M1-2 Log2 Median Normalized / M2-1 Log2 Median Normalized / M2-2 Log2 Median Normalized: log2 ratio; for M1-2 Log2 Median Normalized: replicate M1-2; for M2-1 Log2 Median Normalized: replicate M2-1; for M2-2 Log2 Median Normalized: replicate M2-2; for change: up = enriched in ENR+CD, down = enriched in ENR, FDR<0.05 and log fold change cut-off
Description: Because PCs are highly secretory, protein-rich cells, Applicants sought to assess the total intracellular proteome between conditions through liquid chromatography mass spectrometry (LC-MS/MS)-based proteomics. Applicants quantified relative protein abundance across eight samples using isobaric mass tag labeling from four ENR and four ENR+CD samples (M1-1 through M2-2, first digit denotes biological donor, second digit denotes technical replicate) (FIG. 3A). Samples were processed and analyzed in a single 10-plex by LC-MS/MS (FIG. 9A).
To affirm the reproducibility of the associated proteins in the ENR+CD-enriched proteome, Applicants performed relative quantification within differentiation sets.
Mass spectrometry proteomics sample preparation, sequencing, and quantification. Organoid cell pellets were isolated from Matrigel with mechanical dissociation and washed (cold PBS 5X) to remove residual extracellular protein. Proteins were extracted from cell pellets with 8 M urea (Sigma), reduced with 5 mM DTT (Thermo Fisher Pierce) for 45 minutes, alkylated with 10 mM IAA (Sigma) for 45 minutes in the dark, and double digested with both Lysyl Endopeptidase “LysC” (Wako) and trypsin (Promega) overnight at RT. A small aliquot of cellular lysate was removed from each sample for protein quantification via the Pierce™ BCA Protein Assay Kit (Pierce). After proteolytic digestion, the samples were quenched using formic acid to a final concentration of 1.0% and subsequently desalted on 10 mg OASIS HLB solid phase columns (Waters).
The peptides were labeled with TMT-10 isobaric mass tag reagent according to manufacturer's instructions (ThermoFisher Scientific). The peptides were labeled at a 1:8 ratio of peptide to TMT reagent, followed by 1-hour incubation at RT with bench top shaking at 850 rpm. After incubation, a […] of labeled tryptic peptide was removed from each labeled condition, desalted with C18 stage tips, and analyzed via LC-MS/MS using a Thermo Fisher Q Exactive Plus Hybrid Mass Spectrometer (QE-Plus) coupled to a Thermo Fisher EASY-nLC 1000 liquid chromatograph to ensure isobaric label incorporation >95%. An additional 1.0 μg of labeled tryptic peptide was removed from each channel, mixed together, desalted on a C18 stage tip, and analyzed via LC-MS to ensure equal relative protein loads. During these quality control steps, the labeled peptides were stored, unquenched at −80° C.

Molecule | Average logFC | M1-1 Log2 Median Normalized | M1-2 Log2 Median Normalized | M2-1 Log2 Median Normalized | M2-2 Log2 Median Normalized | change
P04184 (protein, UniProt P04184 1-233, looked up, full-length) MSYINLPTVLPSSPSKTRGQIQVILGPMFSGKSTELMRRVRRFQIAQYKCLVIKYAKDTRYSNSFSTHDRNTMDALPACMLRDVTQESLGVAVIGIDEGQFFPDIVDFCEMMANEGKTVIVAALDGTFQRKAFGSILNLVPLAESVVKLTAVCMECFREAAYTKRLGLEKEVEVIGGADKYHSVCRLCYFKKSSAQTAGSDNKNCLVLGQPGEALVVRKLFASQQVLQYNSAN | −1.187 | −1.268 | −1.033 | −1.0175 | −1.428 | down
O88451 (protein, UniProt O88451 1-316, looked up, full-length) MWLYLVALVGLWTLLRFFRERQVVSHLQDKYVFITGCDSGFGNLLARQLDRRGMRVLAACLTEKGAEQLRNKTSDRLETVILDVTKTESIVAATQWVKERVGNRGLWGLVNNAGICVFAINEWLKKEDFANILDVNLLGMIEVTLSMLPLVRKARGRVVNISSSMGRVSLCGGGYCISKYGVEAFSDSLRREISYFGVKVAIIEPGGFRTNVSNYERLSHSIEKLWDQTSSEVKEVYDKNFLDSYIKAIQSLTDTCSDDLSVVTDCMEHALTACHPRTRYSAGWDAKLFYLPLSYMPTFLVDAMLYWSSVKPAQAL | −1.416 | −1.202 | −1.565 | −2.2355 | −0.662 | down
O88513 (protein, UniProt O88513 1-206, looked up, full-length) MNLSMKQKQEGAQENVKNSPVPRRTLKMIQPSADGSLVGRENELPKGLFKRKLWDDQLASQTSSCGPEANENKDVGDLTQEAFDLISKENPSSQYWKEVAEQRRKALYEALKENEKLHKEIEQKDSEIARLRKENKDLAEVAEHVQYMAEVIERLSNEPLDNFESPDSQEFDSEEEAVEYSELEDSGAGTCAEETVSSSTDARPCT | −1.337 | −1.6 | −1.306 | −0.8435 | −1.599 | down
O88310 (protein, UniProt O88310 1-313, looked up, full-length) MTQLGFLLFIMVATRGCSAAEENLDTNRWGNSFFSSLPRSCKEIKQEHTKAQDGLYFLRTKNGVIYQTFCDMTTAGGGWTLVASVHENNMRGKCTVGDRWSSQQGNRADYPEGDGNWANYNTFGSAEAATSDDYKNPGYFDIQAENLGIWHVPNKSPLHNWRKSSLLRYRTFTGFLQHLGHNLFGLYKKYPVKYGEGKCWTDNGPALPVVYDFGDARKTASYYSPSGQREFTAGYVQFRVFNNERAASALCAGVRVTGCNTEHHCIGGGGFFPEGNPVQCGDFASFDWDGYGTHNGYSSSRKITEAAVLLFYR | 1.203 | 1.445 | 1.239 | 0.9545 | 1.175 | up
O88803 (protein, UniProt O88803 1-151, looked up, full-length) MIPTTILISAALLSSALAGPWANICASKSSNEIRTCDSYGCGQYSAQRTQRHHPGVDVLCSDGSVVYAPFTGKIVGQEKPYRNKNAINDGIRLSGRGFCVKIFYIKPIKYKGSIKKGEKLGTLLPLQKIYPGIQSHVHVENCDSSDPTAYL | 1.443 | 1.692 | 1.063 | 1.4425 | 1.463 | up
P03958 (protein, UniProt P03958 1-352, looked up, full-length) MAQTPAFNKPKVELHVHLDGAIKPETILYFGKKRGIALPADTVEELRNIIGMDKPLSLPGFLAKFDYYMPVIAGCREAIKRIAYEFVEMKAKEGVVYVEVRYSPHLLANSKVDPMPWNQTEGDVTPDDVVDLVNQGLQEGEQAFGIKVRSILCCMRHQPSWSLEVLELCKKYNQKTVVAMDLAGDETIEGSSLFPGHVEAYEGAVKNGIHRTVHAGEVGSPEVVREAVDILKTERVGHGYHTIEDEALYNRLLKENMHFEVCPWSSYLTGAWDPKTTHAVVRFKNDKANYSLNTDDPLIFKSTLDTDYQMTKKDMGFTEEEFKRLNINAAKSSFLPEEEKKELLERLYREYQ | 1.34 | 1.339 | 0.074 | 1.5985 | 1.501 | up
P02772 (protein, UniProt P02772 1-605, looked up, full-length) MKWITPASLILLLHFAASKALHENEFGIASTLDSSQCVTEKNVLSIATITFTQFVPEATEEEVNKMTSDVLAAMKKNSGDGCLESQLSVFLDEICHETELSNKYGLSGCCSQSGVERHQCLLARKKTAPASVPPFQFPEPAESCKAHEENRAVFMNRFIYEVSRRNPFMYAPAILSLAAQYDKVVLACCKADNKEECFQTKRASIAKELREGSMLNEHVCSVIRKFGSRNLQATTIIKLSQKLTEANFTEIQKLALDVAHIHEECCQGNSLECLQDGEKVMTYICSQQNILSSKIAECCKLPMIQLGFCIIHAENGVKPEGLSLNPSQFLGDRNFAQFSSEEKIMFMASFLHEYSRTHPNLPVSVILRIAKTYQEILEKCSQSGNLPGCQDNLEEELQKHIEESQALSKQSCALYQTLGDYKLQNLFLIGYTRKAPQLTSAELIDLTGKMVSIASTCCQLSEEKWSGCGEGMADIFIGHLCIRNEASPVNSGISHCCNSSYSNRRLCITSFLRDETYAPPPFSEDKFIFHKDLCQAQGKALQTMKQELLINLVKQKPELTEEQLAAVTADFSGLLEKCCKAQDQEVCFTEEGPKLISKTRDALGV | −1.438 | −1.616 | −1.696 | −1.1235 | −1.316 | down
O88554 (protein, UniProt O88554 1-559, looked up, full-length) MAPRRQRSGSGRRVLNEAKKVDNGNKATEDDSPPGKKMRTCQRKGPMAGGKDADRTKDNRDSVKTLLLKGKAPVDPECAAKLGKAHVYCEGDDVYDVMLNQTNLQFNNNKYYLIQLLEDDAQRNFSVWMRWGRVGKTGQHSLVTCSGDLNKAKEIFQKKFLDKTKNNWEDRENFEKVPGKYDMLQMDYAASTQDESKTKEEETLKPESQLDLRVQELLKLICNVQTMEEMMIEMKYDTKRAPLGKLTVAQIKAGYQSLKKIEDCIRAGQHGRALVEACNEFYTRIPHDFGLSIPPVIRTEKELSDKVKLLEALGDIEIALKLVKSERQGLEHPLDQHYRNLHCALRPLDHESNEFKVISQYLQSTHAPTHKDYTMTLLDVFEVEKEGEKEAFREDLPNRMLLWHGSRLSNWVGILSHGLRVAPPEAPITGYMFGKGIYFADMSSKSANYCFASRLKNTGLLLLSEVALGQCNELLEANPKAQGLLRGKHSTKGMGKMAPSPAHFITLNGSTVPLGPASDTGILNPEGYTLNYNEFIVYSPNQVRMRYLLKIQFNFLQLW | −1.403 | −1.403 | −0.933 | −1.4925 | −1.465 | down
